The values below come from the DeepSol protein solubility set.

A short description of this data set: soluble on expression in E. coli; label from the status in PepcDB or PDB records.
Consider “MISIKGTGRFLLDNYRIWQRRAFNRPIQLRKGYKVLAIETSCDDTCVSVLDRFSKSAAPNVLANLKDTLDSIDEGGIIPTKAHIHHQARIGPLTERALIESNAREGIDLICVTRGPGMPGSLSGGLDFAKGLAVAWNKPLIGVHHMLGHLLIPRMGTNGKVPQFPFVSLLVSGGHTTFVLSRAIDDHEILCDTIDIAVGDSLDKCGRELGFKGTMIAREMEKFINQDINDQDFALKLEMPSPLKNSASKRNMLSFSFSAFITALRTNLTKLGKTEIQELPEREIRSIAYQVQESVFDHIINKLKHVLKSQPEKFKNVREFVCSGGVSSNQRLRTKLETELGTLNSTSFFNFYYPPMDLCSDNSIMIGWAGIEIWESLRLVSDLDICPIRQWPLNDLLSVDGWRTDQL”, for which the “soluble on expression in E. coli” value is “not soluble”.
Take “MSVLDLVALSEGMTAGEAIAHSVRAAQIAEEHNYARFWVAEHHNSEGLASSATTLLMGHIAGHTSRIRVGSGGIMMPNHSALHVAEELGTLEAIYPGRIEAGLGRAPGTDPMTARELGRASSLVDDVLSTIVSLQNYLDTPEERPNIIAHPGINSRVPLFMLGSSLNGAAMAAKLDLPFAFASHFAPFQMGPAIASYRELAANPYVMAAANVLVCDTEEEAEFQISTLHQMFAGIVTNSRGKLAPPVRNLKDKLDPMIWKHIEDSLEMTFIGTAESVVLQLQEFADRYKLDEIITVTYSYDPEVRFRSIAALGT”: the “soluble on expression in E. coli” value was “not soluble”.
As to “GSHMTALDWRSALTADEQRSVRALVTATTAVDGVAPVGEQVLRELGQQRTEHLLVAGSRPGGPIIGYLNLSPPRGAGGAMAELVVHPQSRRRGIGTAMARAALAKTAGRNQFWAHGTLDPARATASALGLVGVRELIQMRRPLRDIPEPTIPDGVVIRTYAGTSDDAELLRVNNAAFAGHPEQGGWTAVQLAERRGEAWFDPDGLILAFGDSPRERPGRLLGFHWTKVHPDHPGLGEVYVLGVDPAAQRRGLGQMLTSIGIVSLARRLGGRKTLDPAVEPAVLLYVESDNVAAVRTYQSLGFTTYSVDTAYALAGTDN”, the “soluble on expression in E. coli” value is “soluble”.
Consider “MELRDRIDFLCKTILAIKTAGRLVLGIDGLSRSGKTTLANQLSQTLREQGISVCVFHMDDHIVERAKRYHTGNEEWFEYYYLQWDVEWLTHQLFRQLKASHQLTLPFYDHETDTHSKRTVYLSDSDMIMIEGVFLQRKEWRPFFDFVVYLDCPREIRFARENDQVKQNIQKFINRYWKAEDYYLETEEPIKRADVVFDMTS”, for which the “soluble on expression in E. coli” value is “soluble”.
For the sequence “MSSVLDVTKPDFDVEAFVVKLLREKSLDGLVKEEEEMVSAVRRLDSDVHQIVYENYNKFLTATNTVRKIQDEFTQLDSEMKSLSRSMSTISTLIGNLDGVLGEKRDDILQLGSSYKVVNSLKHIFDLPHVLRSEFDERNYGEVLRMFKLAEESLSQYKDVPTVQLVLQKSKKIYDMTENQLMDQLRNPASGAELVSEAVDLLLTIGRDEDEVQKVLLTCSEQSLRVDLKELSANHSDVLDLVDKASESFIPNLTLIATTHDRLFEDKREDLITVLKTEMNSLHALVSKVFLSSSDAKDCSIVVRALDRYFRKISTCRYVIPGLDFLPLTIELINAVSKHEIDLSLTRIKEELKNGLNEVRKALINEEKDLSALASKIEQVFVHQVKTALANLLLFTASDVTFANLPPDEFRQSFSFNAHERLLVQAFHRFSELADEYESGAGEIRFVDPRVHLVFAVALQHLSNKSAVYLLNLCREQFSLSPDDGLTDITVVMSEVKTRAQKLVRCYAEKTGLSMGETLIKGCAMLVQPAATPSAVRASVRRLVEEMNTCDSELTLLLGGDSKPKDSRVSRRPITTALDAARDSLWCERIDFHLQIHFNRASIITVIVKVVLKIFIESIRLQTYSKFGVEQVQVDCYYLQRCLAALVSDEVVVNSMVDQALSSALKRCQDPVLVHPSRLAQLCEQPPANRPSSQASSLGY”, the “soluble on expression in E. coli” value was “not soluble”.
Regarding “SLNSSIDVDSLMRSVSRVFKFIDMPTEGKPTKSTKPYKNGQLSKVMIIENSHVKKDDIWPSGGQMTVKDLTAKYTEGGNAILENISFSISPGQRVGLLGRTGSGKSTLLSAFLRLLNTEGEIQIDGVSWDSITLQQWRKAFGVIPQKVFIFSGTFRKNLDPYEQWSDQEIWKVADEVGLRSVIEQFPGKLDFVLVDGGCVLSHGHKQLMCLARSVLSKAKILLLDEPSAHLDPVTYQIIRRTLKQAFADCTVILCEHRIEAMLECQQFLVIEENKVRQYDSIQKLLNERSLFRQAISPSDRVKLFPHRNSSKCKSKPQIAALKEETEEEVQDTRL”, the “soluble on expression in E. coli” value is reported as “soluble”.
As for “RTEDLPKAVVFLEPQWYSVLEKDSVTLKCQGAYSPEDNSTQWFHNESLISSQASSYFIDAATVNDSGEYRCQTNLSTLSDPVQLEVHIGWLLLQAPRWVFKEEDPIHLRCHSWKNTALHKVTYLQNGKDRKYFHHNSDFHIPKATLKDSGSYFCRGLVGSKNVSSETVNITITQGL”, the “soluble on expression in E. coli” value is recorded as “soluble”.
As to “SMKEPSQQRVKRWGFGMDEALKDPVGREQFLKFLESEFSSENLRFWLAVEDLKKRPIKEVPSRVQEIWQEFLAPGAPSAINLDSKSYDKTTHNVKEPGRYTFEDAQEHIYKLMKSDSYPRFIRSSAYQELLQAKKKSGNSMDRRTS”, the “soluble on expression in E. coli” value is “soluble”.
“MGSDKIHHHHHHMSDSEKEILKRIKDNPFISQRELAEAIGLSRPSVANIISGLIQKEYVMGKAYVLNEDYPIVCIGAANVDRKFYVHKDLVAETSNPVTSTRSIGGVARNIAENLGRLGETVAFLSASGQDSEWEMIKRLSTPFMNLDHVQQFENASTGSYTALISKEGDMTYGLADMEVFDYITPEFLIKRSHLLKKAKCIIVDLNLGKEALNFLCAYTTKHQIKLVITTVSSPKMKNMPDSLHAIDWIITNKDETETYLNLKIESTDDLKIAAKRWNDLGVKNVIVTNGVKELIYRSGEEEIIKSVMPSNSVKDVTGAGDSFCAAVVYSWLNGMSTEDILIAGMVNAKKTIETKYTVRQNLDQQQLYHDMEDYKNGKFTKVY”: the “soluble on expression in E. coli” value is listed as “not soluble”.
For “MRQRTIVCPLIQNDGCYLLCKMADNRGVFPGQWALSGGGVEPGERIEEALRREIREELGEQLILSDITPWTFRDDIRIKTYADGRQEEIYMIYLIFDCVSANRDICINDEFQDYAWVKPEELALYDLNVATRHTLALKGLL”, the “soluble on expression in E. coli” value is “not soluble”.
Under “MEMVKSRSKVAIIGAGFVGASAAFTMALRQTANELVLIDVFKEKAIGEAMDINHGLPFMGQMSLYAGDYSDVKDCDVIVVTAGANRKPGETRLDLAKKNVMIAKEVTQNIMKYYNHGVILVVSNPVDIITYMIQKWSGLPVGKVIGSGTVLDSIRFRYLLSEKLGVDVKNVHGYIIGEHGDSQLPLWSCTHIAGKNINEYIDDPKCNFTEEDKKKIAEDVKTAGATIIKNKGATYYGIAVSINTIVETLLKNQNTIRTVGTVINGMYGIEDVAISLPSIVNSEGVQEVLQFNLTPEEEEALRFSAEQVKKVLNEVKNL” stands “soluble”.
Regarding “LSAGALKATASQQDKPESQYGLAGQLQAAAGQQGVTAQQQTRAEAAQQAQLPLQLTKELANEQVAEKVQMMMSKNLKNLDIRLDPPELGRMQIRMTMNNDLANVHFTVTNPQARDIIEQTLPRLREMLAQQGMQLADSSVQQQS”, the “soluble on expression in E. coli” value is reported as “not soluble”.
For “MKLEASLKHFSPQGMHISDSVKETSPDRLTGTDIMVAIGTTSSRARFGLAAFFGKAGISKTDEQLAVQALVRHAMDTAPKNVRKAAGGEFGWCMLVLAQFAFAEYSRSAATSVTCHTCKGSGRITRTQTTRKVSYPWGKAPYWASKSRAVRPSDWEKWTEVTEIVPAVCEACDGKGTISARCRCGGKGEVLDRIATKERGVPVFKTCERCSGEGYSRVSSATVHRAILKRLPDLHQSSWSRNWKPFYEMLVDVLYKGERQAASEFEKATAY”, the “soluble on expression in E. coli” value is on record as “not soluble”.
Consider “MGSDKIHHHHHHMSINDKEKKKLQRAILIIACEVARICKKNDIPYFINGGTQIGAVRHNGFIPWDDDFDIGFKRKDYEKFIKACDKDLNKDKFFLQTPETEEYYAFDFAKLQLKGTEIIEDFSKNVKIQHGIFVDLFPHDNIPDCKLKRKLFLFKNHLMKNILWVKCGYGEKKHKSKLSYKMVKFVSKFFSIKQIKQSRSKLLDKYNNTKTTQCIISDYPNDLIMNSWLDDLQLFRFEEVEFYGIKQYDAYLKSLYGDYMSLPPESERIVHSNYKIDFGLYDGLLEDMLYGNNI”, for which the “soluble on expression in E. coli” value is given as “not soluble”.
Under “MTKNTSYHYSIIIPHKNTPRLLERCLCSIPTWDEIQIIIIDDNSNSESVDFSHFPGNGRKNTEVLFTKEGKGAGYARNIGLSHARGKWIIFADADDFFTADCFTILNEYMDSPHEVIYFNVRFVMSDNPSQESRRGTYYTNFFNDVNPENKLRYQSQVPWGKMIRRSFLSTFHIQFDETRIANDVYFSCLVGIYAPKATTDRRIIYYCTESGQSLAMSKQDRESLIIRFNASMKCNRLLRQEKIHYYLSPLPWCIPSAKTKEWLPAKYFFEYLFFFRLQAFKELYYAFSAILSHMNEPATKETDNQCNKKTTNLRE” stands “not soluble”; under “MEHEIGNISIARIRQMNPSLKGINNDFVMDRSEHYIPENMNPIFKYPLRLDGIIISIREKGSAKVNINLREYDIEQNDLIICAPGDILQSMLSPGIHLSQMFLISSDFLKEMYINLNSFMPFFISLKENPKFHLMEEEVQELKSFYELIEETVSRNDNFRTEIVRRLMGAYLYKIGSILHRKQPEFLSENPKSLKREEVLFNQFINLLTEHHRKERRVDFYAEQLFLSPKHFSTVVKKVSGKTAGEWIDEYVILEAKALLKYSVMSIQEVAYFMNFPNPSFFGKYFKHHTGLSPSEYKMQ”, “not soluble”; under “MGSDKIHHHHHHMNLRQLYYFKKLAEKEHYTIAAAELSITQPSLSHSIAELERELGVYLFEKQGRNIRLTKYGRFYLTYVEKSLAELEKGEKLLHELTSPSHGNIDLGFIYTMGAHTVPELVQNFTKAENHKDITFSFYQGATKSIIPDLKNEKFDLAICSYVENEPDIEFLPLTKQELVIVVAENHPLAKYDSIDLKDTADYSYIFFSDTSGLRPLIDSLFAEINIQPKIGCYVEEDTAMVGLVSVDYGISIMPKISSLAHYNVKVLSINEPKHERFIYLASLKNHYISPASKAFKDFALRYGEKHFL”, “not soluble”.
Under “MTEEFNESMINDIKEGDKVTGEVQQVEDKQVVVHINGGKFNGIIPISQLSTHHIDSPSEVVKEGDEVEAYVTKVEFDEENETGAYILSRRQLETEKSYSYLQEKLDNNEIIEAKVTEVVKGGLVVDVGQRGFVPASLISTDFIEDFSVFDGQTIRIKVEELDPENNRVILSRKAVEQEENDAKKDQLLQSLNEGDVIHGKVARLTQFGAFIDIGGVDGLVHVSELSHEHVQTPEEVVSIGQDVKVKIKSIDRDTERISLSIKDTLPTPFENIKGQFHENDVIEGVVVRLANFGAFVEIAPGVQGLVHISEIAHKHIGTPGEVLEPGQQVNVKILGIDEENERVSLSIKATLPNEDVVESDPSTTKAYLENEEEDNPTIGDMIGDKLKNLKLLEHHHHHH” stands “soluble”; under “MGSDKIHHHHHHMDDFSEILARKRQGSLKVYLGYAAGVGKTYAMLQEAHRLAREGLDVVIGYVEPHDRADTLALVEGLEQVAPRKVAIAGSDFTEMDVPGIIARRPQVVLVDELAHTNAAGSENGKRYQDVLKVLEAGINVITTLNVQHLESVAERVESVAGVRVQERLPDAILRRADQVVNVDLTKEDLRERLRQGRIYSPEQAERALGGFFSYRNLSFLRELCLREASGDQVRKIEEQEHFPRHSAGDVIEGVMVALSSSPTDAETLIRRGVRIAHQMGSPCYVVYVQRPSENPTRIDSGLQRVLQGNLRLATQLGAEVVQLAGGDIAETLANFASERNVRHAVFGKSRLSPLLERVRGSFILEFLHDAVGVDVHIVNTTPRQPGQERA”, “not soluble”.
